In the nanobody polyreactivity screen of Harvey et al. (2022):

Assay: yeast display, Sf9 membrane polyspecificity reagent, FACS + sequencing; frameworks hold sequencing errors
Summary of the method: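 Sorting gates, low and high (top ~1%), were placed on anti-HA fluorescence to track expression and on streptavidin fluorescence to track reagent binding. A clone's polyreactivity label is taken from the gate it came out of. The reagent was 10% biotinylated, detergent-solubilized Sf9 membrane, applied for 1 hour at 4 °C to galactose-induced yeast display cells.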

Row | Sequence | polyreactivity (PSR sort gate)
1 | QVQLVESWGGLVQAGGSLRLSCAASGRIFKRNTMGWNRQAPGKQRELVAAITGSSGSTYYADSVKGRFTNSRDNAKNTVYLQMNSLKPEDTAVYYCNTVRSVYQYWPYNYWGQGTQVTVSS | high polyreactivity
2 | QVQLVESWGGLVQAGGSLRLSCAASGRIFRGYAMGWYRQAPGKERELVAVISYSGTRTYYADSVKGRFTISRDNAKNTVYLQMNSLKPEDTAVYYCNARANGFKDGYWGQGTQVTVSS | high polyreactivity
3 | QVQLVESWGGLVQAGGSLRLSCAASGRIFVKYAMGWYRQAPGKERELVAAISWIGGSTYYADSVKGRFTISRDNAKNTVYLQMNSLKPEDTAVYYCAAQGKDYEASPGYDGGRNYWGQGTQVTVSS | low polyreactivity
4 | QVQLVESWGGLVQAGGSLRLSCAASGRTFKIYTMGWYRQAPGKERELVAAISRGGSTYYADSVKGRFTISRDNAKNTVYLQMNSLKPEDTAVYYCAVDLYYLSSASTRQVRRDYWGQGTQVTVSS | high polyreactivity
5 | QVQLVESWGGLVQAGGSLRLSCAASGSIFAINAMGWYRQAPGTERELVAAIRSGGRTYYADSVKGRFTISRDNAKNTVYLQMNSLKPEDTAVYYCNAGGKWIGSDYCGQGTQVTVSS | high polyreactivity
6 | QVQLVESWGGLVQAGGSLRLSCAASGSIFRPYAMGWYRQAPGKERELVAAISSSGGSTYYADSVKGRFTISRDNAKNTVYLQMNSLKPEDTAVYYCAAESRSTWIHSRDYWGQGTQVTVSS | low polyreactivity
7 | QVQLVESWGGLVQAGGSLRLSCAASGSIFYSNAMGWYSQAPGKERELVAAIRTSAGSTYYADSVKGRFTISRDTAKNTVYLQMNSLKPEDTAVYYCAAVTTYYYYDVSDYAYEFYYWGQGTQVTVSS | low polyreactivity
8 | QVQLVESWGGLVQAGGSLRLSCAASGSTFDVNAMGWYRQAPGKERELVAAISWNSGSTYYADSVKGRFTISRDNAKNTVYLQMNSLKPEDTAVYYCAARNPFNHPLDYWGQGTQVTVSS | high polyreactivity
9 | QVQLVESWGGLVQAGGSLRLSCAASGSTFQPYAMGWYRQAPGKERELVAAIRSIAGSTYYADSVKGRFTISRDNAKITVYLQMNSLKPEDTAVYYCAADWWRVEMDYWGQGTQVTVSS | low polyreactivity
10 | QVQLVESWGGLVQAGGSLRLSCAASGSTFVKNAMGWYRQAPGKERELVAAISYRGGRTYYADSVKGRYTISRDNAKNTVYLQMNSLKPEDTAVYYCNARYRTPSFIRMGYWGQGTQVTVSS | high polyreactivity
11 | QVQLVESWGGLVQAGGSLRLSCAASGSTIDTNTMGWYRQAPGKEREWVAAITWSDASTYADSVKGRFTISRDNAKNTVYFQMNSLKPEDTAVYYCNADWTITVGYDYWGQGTKVTVSS | low polyreactivity
12 | QVQLVESWGGLVQAGGSLRLSCAASGSTLGNNGMGWYRQAPGKERELVAAIDSTVTTNYADSVKGRFTISRDNAKKSVYLHMNSLKPEDTAVYYCAADYWGQGTQVTVSS | low polyreactivity
13 | QVQLVESWGGLVQAGGSLRLSCADSGRIFLRNTMGWYRQAPGKERELVATISKSAGSTYYADSVKGRFTISRDNAKNSVYLQMNSLKPEDTAVYYCATSRYLKLGYDYWGQGTQVTVSS | high polyreactivity
14 | QVQLVESWGGLVQAGGSLRLSCADSGSTFNVNAMGWYSQAPGKESELVATITESGGRTYYADSVKGRFTISRDYAKNNVYLQMNSLKPEDTAVYYCARGDAWTFDYEPYDYWGQGTQVTVSS | low polyreactivity
15 | QVQLVESWGGLVQAGGSLRLSCASSGITFSPYALGWYRQAPGKERELVAAISSRGGSTYYADSVKGRFTISRDNAKNTVYFQMNSLKPEDTAVFYCNALTFVRYLFHYTYWGQGTQVTVSS | high polyreactivity
16 | QVQLVESWGGLVQEGRSLRLSCAASGYTFQRYNIRWYRPAPGKERELVAAINWSGGSTYYADSVKGRFTISRDNAMNTVYLQMIWLKPEDTAVYYFSRRYRDYGGYGYWGQGTQVSVSS | high polyreactivity
17 | QVQLVESWGGLVQSGGSLRLISAASGRTYYYYVMGCYRQAPGKERDLVATINSGASTYYADSVKGRFTISRDNAKNTVYLQMNSLNPEDTAVYYCAACVLRRIAGVRYRYGFWGQGTQVTVSS | high polyreactivity
